Experimental findings from publication PMC3287177 are described below.

Holding throughout (experiment): EMSA
For orientation: Mobility shift assays separate free from complexed probe on a gel.

Series [1] concerns the target T1, Lin28 1-209 (Mus musculus, UniProt Q8K3Y3 1-209).
T1 sequence: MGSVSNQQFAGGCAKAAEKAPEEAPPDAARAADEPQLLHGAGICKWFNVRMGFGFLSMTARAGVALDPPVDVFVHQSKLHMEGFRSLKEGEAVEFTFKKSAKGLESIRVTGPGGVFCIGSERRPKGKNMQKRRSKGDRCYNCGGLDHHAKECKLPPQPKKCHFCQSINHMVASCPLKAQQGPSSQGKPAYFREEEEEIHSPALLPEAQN

Series [2] addresses T2, Lin28 119-180 (NCp7-like domain) (Mus musculus, UniProt Q8K3Y3 119-180).
T2 sequence: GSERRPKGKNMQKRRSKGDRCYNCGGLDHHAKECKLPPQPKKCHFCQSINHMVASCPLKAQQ

The target in series [3] is T3, Lin28 39-112 (CSD) (Mus musculus, UniProt Q8K3Y3 39-112).
T3 sequence: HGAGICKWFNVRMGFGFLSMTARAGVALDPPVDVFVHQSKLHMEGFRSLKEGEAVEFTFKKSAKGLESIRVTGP

B1: pre-let-7g (structured_RNA)
RNA: UGAGGUAGUAGUUUGUACAGUUUGAGGGUCUAUGAUACCACCCGGUACAGGAGAUAACUGUACAGGCCACUGCCUUGCC
For orientation: Kd means a measure of binding affinity in units of concentration. On to B1, for which the Kd came to 0.15 ± 0.04 nM in series [1], 0.6 ± 0.1 nM in series [2] and 41 ± 10 nM in series [3].
